Measurements taken from the Immune Epitope Database (IEDB).

Key:
HLA-A*02:01 = experiment: IEDB peptide-MHC binding, purified MHC/direct/fluorescence; filed as Kd, often an IC50 or EC50 that approximates it; ≥ and ≤ were set here for values at or beyond the usual limits of such assays
HLA-A*03:01 = experiment: as above
HLA-A*24:03 = experiment: as above
HLA-A*69:01 [1] = experiment: IEDB peptide-MHC binding, purified MHC/competitive/fluorescence; filed as Kd, often an IC50 or EC50 that approximates it; ≥ and ≤ were set here for values at or beyond the usual limits of such assays; conditions: source organism: Zaire ebolavirus
HLA-B*15:01 [2] = experiment: as above; conditions: source organism: Zaire ebolavirus
HLA-B*15:17 = experiment: as above; conditions: source organism: Zaire ebolavirus
HLA-B*18:01 [3] = experiment: as above; conditions: source organism: Zaire ebolavirus
HLA-B*27:03 = experiment: as above; conditions: source organism: Zaire ebolavirus
HLA-B*39:01 = experiment: as above; conditions: source organism: Zaire ebolavirus
HLA-B*46:01 = experiment: as above; conditions: source organism: Zaire ebolavirus
HLA-B*51:01 [4] = experiment: as above; conditions: source organism: Zaire ebolavirus
HLA-B*57:01 = experiment: as above; conditions: source organism: Zaire ebolavirus
HLA-B*35:01 = experiment: IEDB peptide-MHC binding, purified MHC/competitive/radioactivity; filed as Kd, often an IC50 or EC50 that approximates it; ≥ and ≤ were set here for values at or beyond the usual limits of such assays
HLA-B*07:02 [5] = experiment: as above
HLA-B*51:01 [6] = experiment: as above
HLA-B*53:01 = experiment: as above
HLA-B*18:01 [7] = experiment: IEDB peptide-MHC binding, purified MHC/direct/fluorescence; filed as Kd, often an IC50 or EC50 that approximates it; ≥ and ≤ were set here for values at or beyond the usual limits of such assays; conditions: source organism: Orthohantavirus hantanense
HLA-B*40:01 = experiment: as above
HLA-B*44:02 = experiment: as above
HLA-A*02:12 = experiment: as above; conditions: source organism: Mycobacterium tuberculosis str. Haarlem
HLA-A*30:02 = experiment: IEDB peptide-MHC binding, purified MHC/competitive/radioactivity; filed as Kd, often an IC50 or EC50 that approximates it; ≥ and ≤ were set here for values at or beyond the usual limits of such assays; conditions: source organism: Dengue virus 4 Philippines/H241/1956
HLA-A*01:01 = experiment: IEDB peptide-MHC binding, purified MHC/direct/fluorescence; filed as Kd, often an IC50 or EC50 that approximates it; ≥ and ≤ were set here for values at or beyond the usual limits of such assays; conditions: source organism: Coxiella burnetii
HLA-A*11:01 = experiment: as above; conditions: source organism: Coxiella burnetii
HLA-A*26:01 = experiment: as above; conditions: source organism: Coxiella burnetii
HLA-A*69:01 [8] = experiment: as above; conditions: source organism: Coxiella burnetii
HLA-B*07:02 [9] = experiment: as above; conditions: source organism: Coxiella burnetii
HLA-B*08:01 = experiment: as above; conditions: source organism: Coxiella burnetii
HLA-B*15:01 [10] = experiment: as above; conditions: source organism: Coxiella burnetii
HLA-B*27:05 = experiment: as above; conditions: source organism: Coxiella burnetii
HLA-B*58:01 = experiment: as above; conditions: source organism: Coxiella burnetii
[11] = source organism: Zaire ebolavirus
[12] = source organism: Dengue virus 1 Brazil/97-11/1997
[13] = source organism: Dengue virus 3 Sri Lanka/1266/2000
[14] = source organism: Dengue virus 2 Jamaica/1409/1983
[15] = source organism: Dengue virus 4 Philippines/H241/1956
[16] = source organism: Orthohantavirus hantanense
[17] = source organism: Dengue virus 3 Martinique/1243/1999
[18] = source organism: Coxiella burnetii

For KLINTLFHA, the Kd (HLA-A*02:01; source organism: Sudan ebolavirus - Maleo (1979)) was 4.7 nM, the Kd (HLA-A*03:01; [11]) was ≥ 20000 nM and the Kd (HLA-A*24:03; [11]) was ≥ 20000 nM. For the same sequence, the Kd (HLA-A*69:01 [1]) was ≥ 20000 nM, the Kd (HLA-B*15:01 [2]) was ≥ 20000 nM and the Kd (HLA-B*15:17) was ≥ 20000 nM. For the same sequence, the Kd (HLA-B*18:01 [3]) was ≥ 20000 nM, the Kd (HLA-B*27:03) was ≥ 20000 nM and the Kd (HLA-B*39:01) was ≥ 20000 nM. The Kd (HLA-B*46:01) was ≥ 20000 nM, the Kd (HLA-B*51:01 [4]) was ≥ 20000 nM and the Kd (HLA-B*57:01) was ≥ 20000 nM.

LALMATFKM showed a Kd (HLA-B*35:01; [12]) of 110 nM.

LPAALAFHL showed a Kd (HLA-B*07:02 [5]; [13]) of 72.4 nM, a Kd (HLA-B*51:01 [6]; [13]) of 828 nM and a Kd (HLA-B*53:01; [13]) of 10.7 nM.

Work on NPWMEDKTPV yielded a Kd (HLA-B*07:02 [5]; [14]) of 55.7 nM.

Work on QPQWIAASII yielded a Kd (HLA-B*07:02 [5]; [15]) of 291 nM and a Kd (HLA-B*51:01 [6]; [15]) of 719 nM.

In the case of RELGLDISL, the Kd (HLA-B*18:01 [7]) is reported as 2.7 nM, the Kd (HLA-B*40:01; [16]) is reported as 1.2 nM and the Kd (HLA-B*44:02; [16]) is reported as 3280 nM.

RPASAWTLY was tested, and the Kd (HLA-B*35:01; [14]) was 83.6 nM and the Kd (HLA-B*53:01; [14]) was 87.5 nM.

For RPGYHTQTA, the Kd (HLA-B*07:02 [5]; [14]) was 9.61 nM.

Sequence RPTPKGTVMD has a Kd (HLA-B*07:02 [5]; source organism: Dengue virus 3 Singapore/8120/1995) of 61 nM.

SPKRLSAAIG was tested, and the Kd (HLA-B*07:02 [5]; [12]) was 125 nM.

For TPFAEYTNSV, the Kd (HLA-B*07:02 [5]; [15]) was 72.9 nM and the Kd (HLA-B*51:01 [6]; [15]) was 813 nM.

TPRGTVMDII was tested, and the Kd (HLA-B*07:02 [5]; [14]) was 6.2 nM and the Kd (HLA-B*51:01 [6]; [14]) was 2420 nM.

Work on VPMSTYGWNI yielded a Kd (HLA-B*07:02 [5]; [17]) of 60.5 nM, a Kd (HLA-B*51:01 [6]; [17]) of 91.7 nM and a Kd (HLA-B*53:01; [17]) of 44.5 nM.

With WHYDDENPY the Kd (HLA-B*35:01; [17]) was 2620 nM.

In the case of WLSQTTLSV, the Kd (HLA-A*02:12) is reported as 3 nM.

Work on YAGPFSQHNY yielded a Kd (HLA-A*30:02) of 14.9 nM and a Kd (HLA-B*35:01; [15]) of 113 nM.

In the case of YAQMWQLMYF, the Kd (HLA-B*35:01; [12]) is reported as 964 nM, the Kd (HLA-B*51:01 [6]; [12]) is reported as 19400 nM and the Kd (HLA-B*53:01; [12]) is reported as 81 nM.

With YYYNFSEDL the Kd (HLA-A*01:01) was ≥ 20000 nM, the Kd (HLA-A*02:01; [18]) was ≥ 20000 nM and the Kd (HLA-A*03:01; [18]) was ≥ 20000 nM. The Kd (HLA-A*11:01) was ≥ 20000 nM, the Kd (HLA-A*24:03; [18]) was 1.05 nM and the Kd (HLA-A*26:01) was ≥ 20000 nM. For the same sequence, the Kd (HLA-A*69:01 [8]) was ≥ 20000 nM, the Kd (HLA-B*07:02 [9]) was ≥ 20000 nM and the Kd (HLA-B*08:01) was ≥ 20000 nM. The Kd (HLA-B*15:01 [10]) was ≥ 20000 nM, the Kd (HLA-B*27:05) was ≥ 20000 nM and the Kd (HLA-B*40:01; [18]) was ≥ 20000 nM. The Kd (HLA-B*44:02; [18]) was ≥ 20000 nM and the Kd (HLA-B*58:01) was ≥ 20000 nM.
